From doi:10.1101/2020.12.30.424835 (bioRxiv, 2020) come the findings set out here.

The target in test [1] is T1, Ctf3 complex (Ctf3, Mcm16, Mcm22), wild type, recombinant (yeast, UniProt Q12748;Q12262;P47167). As to the kind of experiment: fluorescence polarisation.
Test [2] has as its target T1, Ctf3 complex (Ctf3, Mcm16, Mcm22), wild …. Nature of the test: pull-down.

T1 sequence (Q12748 whole entry, chain 1 of 3): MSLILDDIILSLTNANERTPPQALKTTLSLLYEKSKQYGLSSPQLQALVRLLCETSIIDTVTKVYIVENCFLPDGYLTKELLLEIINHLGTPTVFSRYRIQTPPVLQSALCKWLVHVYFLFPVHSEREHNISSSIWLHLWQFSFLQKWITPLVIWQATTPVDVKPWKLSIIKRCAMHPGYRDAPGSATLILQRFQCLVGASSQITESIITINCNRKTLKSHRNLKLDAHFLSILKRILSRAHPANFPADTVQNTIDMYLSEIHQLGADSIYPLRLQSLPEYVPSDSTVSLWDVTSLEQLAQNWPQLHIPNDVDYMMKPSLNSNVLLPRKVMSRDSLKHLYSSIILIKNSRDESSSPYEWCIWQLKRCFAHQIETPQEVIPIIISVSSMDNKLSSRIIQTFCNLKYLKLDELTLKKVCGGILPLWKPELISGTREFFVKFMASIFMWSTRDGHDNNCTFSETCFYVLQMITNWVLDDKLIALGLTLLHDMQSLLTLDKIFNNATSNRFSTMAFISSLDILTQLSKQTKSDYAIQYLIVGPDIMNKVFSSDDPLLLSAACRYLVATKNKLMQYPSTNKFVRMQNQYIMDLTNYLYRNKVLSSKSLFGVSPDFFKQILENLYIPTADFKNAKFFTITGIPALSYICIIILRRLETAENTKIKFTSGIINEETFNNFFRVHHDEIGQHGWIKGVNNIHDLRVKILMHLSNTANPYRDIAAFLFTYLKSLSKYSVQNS
T1 sequence (Q12262 whole entry, chain 2 of 3): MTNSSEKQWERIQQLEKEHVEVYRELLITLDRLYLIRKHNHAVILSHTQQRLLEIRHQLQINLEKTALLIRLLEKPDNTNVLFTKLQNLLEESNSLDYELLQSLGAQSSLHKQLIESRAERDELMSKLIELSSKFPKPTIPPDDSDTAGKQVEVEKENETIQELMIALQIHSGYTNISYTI
T1 sequence (P47167 whole entry, chain 3 of 3): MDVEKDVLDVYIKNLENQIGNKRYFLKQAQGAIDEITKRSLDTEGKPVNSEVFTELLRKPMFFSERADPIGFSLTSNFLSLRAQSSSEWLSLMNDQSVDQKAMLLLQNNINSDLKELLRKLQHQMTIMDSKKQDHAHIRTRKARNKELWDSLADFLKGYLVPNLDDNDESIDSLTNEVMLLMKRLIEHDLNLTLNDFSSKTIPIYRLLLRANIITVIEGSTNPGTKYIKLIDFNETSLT

B1: FITC-Ulp2-KIM peptide (fITC-AHA-DDSDVNLIGSS; Ulp2-927-937) (peptide)
peptide: DDSDVNLIGSS
modifications: fITC-AHA on the N-terminus
For B1, in test [1], the equilibrium dissociation constant (Kd) is around 900 nM.

B2: GST-Ulp2-927-937 (minimal Ulp2-KIM, wild type) (domain or fragment)
chain: DDSDVNLIGSS
With B2, in test [2], the binding result is “binds”.

B3: GST-Ulp2-927-937 N932A (domain or fragment)
chain: DDSDVALIGSS
Regarding B3, in test [2], the binding result is “binds”.

B4: GST-Ulp2-KIM 1DA-1 (minimal KIM, D927A) (domain or fragment)
chain: ADSDVNLIGSS
B4: the binding result in test [2] is given as “binds”.

A word on the Kd: it is the free concentration of one partner at which half of the binding sites on the other are occupied at equilibrium, for simple one-to-one binding.
